Measured values published in publication PMC11573645.

Biological target: complement component C3b, site-specifically biotinylated at Cys-1010 (human) (UniProt P01024)
Assay: SPR

## Native FB purified from human serum (natural protein)
  Ka-1 (two-state model, first step, association): 168000 M⁻¹ s⁻¹
  Kd: 109 nM
  Kd-1 (two-state model, first step, dissociation): 0.0702 s⁻¹
  Kd-2 (two-state model, second step, reverse): 0.00249 s⁻¹

## recombinant wild-type FB (from UniProt P00751 26-764) (natural protein)
  Ka-1 (two-state model, first step, association): 325000 M⁻¹ s⁻¹
  Kd-1 (two-state model, first step, dissociation): 0.0796 s⁻¹
  Kd-2 (two-state model, second step, reverse): 0.0138 s⁻¹

## recombinant FB with D279G and K350N (from UniProt P00751 26-764) (natural protein)
  Ka-1 (two-state model, first step, association): 225000 M⁻¹ s⁻¹
  Kd-1 (two-state model, first step, dissociation): 0.0526 s⁻¹
  Kd-2 (two-state model, second step, reverse): 0.0045 s⁻¹

## recombinant FB with K350N mutation (from UniProt P00751 26-764) (natural protein)
  Ka-1 (two-state model, first step, association): 131000 M⁻¹ s⁻¹
  Kd: 322 nM
  Kd-1 (two-state model, first step, dissociation): 0.0995 s⁻¹
  Kd-2 (two-state model, second step, reverse): 0.00419 s⁻¹

## recombinant FB with K323E mutation (from UniProt P00751 26-764) (natural protein)
  Ka-1 (two-state model, first step, association): 280000 M⁻¹ s⁻¹
  Kd: 159 nM
  Kd-1 (two-state model, first step, dissociation): 0.0807 s⁻¹
  Kd-2 (two-state model, second step, reverse): 0.00723 s⁻¹

## recombinant FB with D279G, K350N, and S699A (from UniProt P00751 26-764) (natural protein)
  Ka-1 (two-state model, first step, association): 256000 M⁻¹ s⁻¹
  Kd: 104 nM
  Kd-1 (two-state model, first step, dissociation): 0.0469 s⁻¹
  Kd-2 (two-state model, second step, reverse): 0.00836 s⁻¹

## recombinant FB with D279G mutation (from UniProt P00751 26-764) (natural protein)
  Ka-1 (two-state model, first step, association): 304000 M⁻¹ s⁻¹
  Kd-1 (two-state model, first step, dissociation): 0.0376 s⁻¹
  Kd-2 (two-state model, second step, reverse): 0.00941 s⁻¹

## recombinant FB with F286L mutation (from UniProt P00751 26-764) (natural protein)
  Ka-1 (two-state model, first step, association): 551000 M⁻¹ s⁻¹
  Ka-2 (two-state model, second step, forward): 0.0289 s⁻¹
  Kd-1 (two-state model, first step, dissociation): 0.0229 s⁻¹
  Kd-2 (two-state model, second step, reverse): 0.0083 s⁻¹
